Measurements: article PMC5517495, “Candidate SNP Markers of Familial and Sporadic Alzheimer's Diseases Are Predicted by a Significant Change in the Affinity of TATA-Binding Protein for Human Gene Promoters”

Molecular target: TATA-binding protein (TBP) (human, UniProt P20226 1-339)
Test: stopped-flow fluorescence (FRET); 0.1 uM ODN, 0.1-1.0 uM TBP; EMSA: 20 mM HEPES-KOH pH 7.6, 5 mM MgCl2, 70 mM KCl, 1 mM EDTA, 100 ug/ml BSA, 0.01% NP-40 (printed 0.0.1%), 5% glycerol, 25 C; stopped-flow buffer not stated
Settings: protein: recombinant; label: 5' TAMRA and 5' FAM; blunt

Sequence of TATA-binding protein (TBP) (P20226 whole entry): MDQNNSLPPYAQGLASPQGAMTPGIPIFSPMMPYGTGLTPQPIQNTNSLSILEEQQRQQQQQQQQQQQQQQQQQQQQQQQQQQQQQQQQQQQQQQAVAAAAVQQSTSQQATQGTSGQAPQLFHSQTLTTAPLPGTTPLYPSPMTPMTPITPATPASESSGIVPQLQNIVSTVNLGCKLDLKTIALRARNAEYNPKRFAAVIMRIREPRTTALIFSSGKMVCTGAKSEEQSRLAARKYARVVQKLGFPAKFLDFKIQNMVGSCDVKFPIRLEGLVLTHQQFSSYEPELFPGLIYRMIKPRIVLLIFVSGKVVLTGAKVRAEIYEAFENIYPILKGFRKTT

B1: TPI1 promoter rs1800202 ancestral allele (stopped-flow) (dsDNA)
DNA 1: CGCGGCGCTCTATATAAGTGGGCAGT
DNA 2: ACTGCCCACTTATATAGAGCGCCGCG
Q: With B1 as the binder, how does the Kd read?
A: 1 nM

B2: TPI1 promoter rs1800202 minor allele (stopped-flow) (dsDNA)
DNA 1: CGCGGCGCTCTATAGAAGTGGGCAGT
DNA 2: ACTGCCCACTTCTATAGAGCGCCGCG
Q: How did the Kd turn out when B2 was run?
A: 19 nM
